One assay deals with T1, Monomeric hAng-2FD (human, UniProt O15123 282-496).
T1 construct: also called fibrinogen-like domain of human Ang2; Human Ang-2FD
T1 sequence: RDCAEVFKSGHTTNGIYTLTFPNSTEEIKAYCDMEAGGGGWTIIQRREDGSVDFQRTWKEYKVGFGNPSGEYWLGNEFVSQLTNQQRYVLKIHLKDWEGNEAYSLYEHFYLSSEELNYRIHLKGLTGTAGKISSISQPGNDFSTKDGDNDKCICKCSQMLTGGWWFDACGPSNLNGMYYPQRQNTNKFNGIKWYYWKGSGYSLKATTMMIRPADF
Kind of assay: SPR, captured Ab.

The target of assay [1] is T2, wild-type human Ang-2 (hAng-2-WT) (human, UniProt O15123 19-496).
T2 construct: called full-length wild-type; also called Full-length wild-type human Ang-2
T2 sequence: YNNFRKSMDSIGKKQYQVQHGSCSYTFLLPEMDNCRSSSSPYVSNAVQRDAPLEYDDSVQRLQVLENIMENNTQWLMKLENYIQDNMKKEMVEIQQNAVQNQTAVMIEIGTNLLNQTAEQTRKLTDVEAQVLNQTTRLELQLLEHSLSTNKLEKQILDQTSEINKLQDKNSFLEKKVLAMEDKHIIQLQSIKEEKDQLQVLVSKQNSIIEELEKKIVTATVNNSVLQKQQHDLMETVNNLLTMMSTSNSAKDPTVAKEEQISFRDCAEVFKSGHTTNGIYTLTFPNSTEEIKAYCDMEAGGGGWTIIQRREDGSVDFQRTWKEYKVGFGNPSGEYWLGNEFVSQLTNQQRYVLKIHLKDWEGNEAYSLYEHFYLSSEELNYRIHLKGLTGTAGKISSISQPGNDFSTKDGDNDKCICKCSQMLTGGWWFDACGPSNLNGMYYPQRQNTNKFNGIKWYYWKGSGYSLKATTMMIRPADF
Kind of assay: SPR, captured Ab. (In SPR one partner is held on a chip, and binding of the other changes the refractive index at the surface.)

Assay [2] concerns the target T3, Dimeric Human Ang-2FD conjugated to human IgG1 (human).
T3 construct: also called Human Ang-2FD-hFc; hAng-2FD-hFc
The assay can be described thus: SPR, captured Ab, RT. As for the experimental part:
(§1) Antibody was captured on a goat anti-mouse IgG polyclonal antibody surface, a goat anti-human κ polyclonal antibody (Southern Biotech, Birmingham, Ala.) surface or a goat anti-human IgG polyclonal antibody (Jackson Immuno Research Lab, West Grove, Pa.) surface created through direct amine coupling to a BIACORE™ CM5 sensor chip to form a captured antibody surface. […] Antigen-antibody binding and dissociation were monitored in real time at room temperature. Kinetic analysis was performed to calculate KD and half-life of antigen/antibody complex dissociation.

For assay [3], the target named is T4, Dimeric Mouse Ang-2FD conjugated to human IgG1 (mouse (Mus musculus); human).
T4 construct: also called Mouse Ang-2FD-hFc
Kind of assay: SPR, captured Ab, RT. On the procedure: as §1

Assay [4] deals with T5, Dimeric Monkey Ang-2FD conjugated to human IgG1 (monkey (Macca fascicularis); human).
T5 construct: also called Monkey Ang-2FD-hFc
Kind of assay: SPR, captured Ab, RT. As for the experimental part: as §1

In assay [5] the target is T3, Dimeric Human Ang-2FD conjugated to …. The assay can be described thus: competition ELISA, 16.67 nM Ab, coated hTie-2-mFc. On the procedure: (§2) The plate was then blocked with PBS (Irvine Scientific, Santa Ana, Calif.) containing 0.5% BSA (Sigma-Aldrich Corp., St. Louis, Mo.) for one hour at room temperature. […] Human, mouse or monkey Ang-2FD protein conjugated to human IgG (Ang-2FD-hFc) were added to final concentrations of 2 nM, 8 nM, or 2 nM respectively and incubated for one hour at room temperature. The antibody/Ang-2FD-Fc mixture was then added to the plate containing hTie-2-mFc and incubated for one hour at room temperature. Detection of Ang-2FD-hFc bound to hTie-2-mFc protein was determined with Horse-Radish Peroxidase (HRP) conjugated to a-human IgG antibody (Jackson Immuno Research Lab, West Grove, Pa.) and developed by standard colorimetric response using tetramethylbenzidine (TMB) substrate (BD Biosciences, San Jose, Calif.). Absorbance was read at OD₄₅₀ for 0.1 sec.

The target of assay [6] is T4, Dimeric Mouse Ang-2FD conjugated to …. The assay can be described thus: competition ELISA, 16.67 nM Ab, coated hTie-2-mFc. As for the experimental part: as §2
In general terms: ELISA stands for enzyme-linked immunosorbent assay.

Assay [7] has as its target T5, Dimeric Monkey Ang-2FD conjugated to …. The assay can be described thus: competition ELISA, 16.67 nM Ab, coated hTie-2-mFc. As for the experimental part:
as §2

Substitutions are numbered along the chain they refer to.

B1: H2M743N (antibody, V domains shown)
VH: EVQLLESGGGLVQPGGSLRLSCAASGFTFRKYAMSWVRQAPGKGLEWVSVISVSGGNTYYADSVKGRFTISRDNSKNTLYLQLNSLRAEDTAVYYCAKDLTDIVLMVYVDYWGQGTLVTVSS
VL: DIQMTQSPSSVSASVGDRVTITCRASQDIDRWLAWYQQKPGKAPKLLIYAASSLQSGVPSRFSGSGSGTDFTLTISTLQPEDFATYYCQQANSLPFTFGGGTKVEIK
Regarding B1, the Kd with Monomeric hAng-2FD stood at 0.399 nM; in assay [1], 0.0143 nM; in assay [2], 0.154 nM; in assay [3], 0.882 nM; in assay [4], 0.234 nM. Besides, the T1/2 with Monomeric hAng-2FD was 157 min; in assay [1], 39.4 h; in assay [2] it was 167 min; in assay [3], 195 min; in assay [4] it was 169 min. Moreover, the “Percent Blocking of Ang-2FD Binding to Tie-2” value (from here on “Percent Blocking”) turned out to be 99.6% in assay [5], 98.4% in assay [6] and 95.1% in assay [7].

B2: H2M744N (antibody, V domains shown)
VH: QVQLVQSGVEVKKPGASVKVSCKTSGYTFSNNGFSWVRQAPGQGLEWLGWISGYNGNTNYAQKFQGRVTMTTDTSTSTAYMELRTLRSDDTAVYYCARDQDYSNFHWLDPWGQGTLVTVAS
VL: DIQMTQSPSSVSASVGDRVIITCRASQGLSSWLAWYQQKPGTAPKLLIHSASSLQTGVPSRFSGSGSGTEFALTINSLQPEDFGTYYCQQANSFPLTFGGGTRVEIK
With B2, the Kd came out at 0.475 nM with Monomeric hAng-2FD; 0.0289 nM in assay [1]; 0.0989 nM in assay [2]; 0.143 nM in assay [3]; 0.5 nM in assay [4]. For the same molecule, the T1/2 with Monomeric hAng-2FD was determined as 89.3 min; in assay [1], 14.1 h; in assay [2], 109 min; in assay [3] it was 223 min; in assay [4], 282 min. The “Percent Blocking” value in assay [5] was found to be 99.5%; in assay [6], 98.4%; in assay [7], 95.5%.

B3: H2M750N (antibody, V domains shown)
VH: QVKLVESGGGVVQPGRSLRVSCAASGFTFSSYGMHWVRQAPGKGLEWLAIIWYDGDNKYYSDSVKGRFTISRDNSKNTLYLQMNSLRAEDTAEYYCVRDASIASRFLDYWGQGTLVTVSS
VL: DIQMTQSPSSLSASIGDRVTITCRATQDINNYLAWFQQKPGKAPKSLIYATSNLQSGVPSKFSGSGSGTDYTLTISSLQPEDFSTYYCQQYHSYPLTFGGGTKVEIK
On to B3, for which the Kd with Monomeric hAng-2FD is 4.42 nM; in assay [1] it was 0.0408 nM; in assay [2] it was 0.362 nM; in assay [4], 1.47 nM. Moreover, the T1/2 with Monomeric hAng-2FD worked out at 21.5 min; in assay [1], 16.5 h; in assay [2], 32.2 min; in assay [4], 23 min. The entries for the “Percent Blocking” value in assay [5], in assay [6] and in assay [7] were 99.4%, 53.7% and 97.4%, respectively.

B4: H2M742N (antibody, V domains shown)
VH: DVQLLESGGDLVQPGGSLRLSCEASGFTFRNYVMIWVRQAPGKGLEWVSGISNSGGTTHYTDSVKGRFTISRDNSKNTLYLQINSLRAEDTAVYYCAKGYLDTSLIEGNWFDPWGQGTLVTVSS
VL: NIVMTQSPLSLPVTPGEPASISCRSSQSLLHSNGFNYLNWFLQKPGQSPQLLIYLGSNRASGVPDKFSGSGSGTDFTLNINRVEAEDVGIYFCMQTLQTPLTFGGGTKVEIK
On to B4, for which the Kd with Monomeric hAng-2FD was 4.81 nM; in assay [1], 0.0679 nM; in assay [2], 0.295 nM; in assay [3], 0.61 nM; in assay [4], 6.17 nM. Further, the T1/2 with Monomeric hAng-2FD stood at 18 min; in assay [1] it was 7.28 h; in assay [2], 38 min; in assay [3] it was 30.8 min; in assay [4], 28.5 min. Moreover, the “Percent Blocking” value turned out to be 99.6% in assay [5], 98.6% in assay [6] and 94.1% in assay [7].

B5: H1M728N (antibody, V domains shown)
VH: EVQLVESGGDLVQPGGSLRLSCTASGFTFSKYWMTWVRQAPGRGLEWVANIKEDGNEKYFLDSVKGRFTISRDNAKDLLFLQMNSLRGEDTAVYYCVRDRGIEVAGPFDYWGQGTLVTVSS
VL: DIQMTQSPSTLSASVGDRVTVTCRASQTIINWLAWYQQKPGKAPKLLISKASSLESGVPSRFSGSGSGTEFTLTISSLQPDDFATYYCQQYNRYWTFGQGTMVEIK
With B5, the Kd in the assay with Monomeric hAng-2FD came to 1.17 nM; in assay [1], 0.0338 nM; in assay [2] it was 0.137 nM; in assay [3], 5.65 nM; in assay [4] it was 1.58 nM. Also, the T1/2 with Monomeric hAng-2FD amounted to 33.9 min; in assay [1], 12.1 h; in assay [2], 58.4 min; in assay [3] it was 9.9 min; in assay [4] it was 69.5 min. Besides, the entries for the “Percent Blocking” value in assay [5], in assay [6] and in assay [7] were 98.5%, 83.9% and 97.1%, respectively.

B6: H1M724N (antibody, V domains shown)
VH: QVQLVESGGGVVQPGRSLRLSCAASGFTLSNYGMHWVRQAPGKGLEWVAVIWHDGSNTYYADSVKGRFTISRDNSKNTLYLQMNSLRAEDTAVYYCTREGLDFWSGYYPNWFDPWGQGTLVTVSS
VL: DIQMTQSPSSLSASVGDRVTITCRASQGIRNDLGWYQQKPGKAPKRLIYAASNLQGGVPSRFSGSGSGTEFTLTISSLQPEDFAAYYCLQHNIYPLTFGGGTKVEIK
As for B6, the Kd was determined as 1.75 nM with Monomeric hAng-2FD; 0.0331 nM in assay [1]; 0.179 nM in assay [2]; 0.694 nM in assay [3]; 0.73 nM in assay [4]. The T1/2 with Monomeric hAng-2FD turned out to be 17.4 min; in assay [1], 9.47 h; in assay [2] it was 42.7 min; in assay [3] it was 16 min; in assay [4] it was 25.7 min. Besides, the results for the “Percent Blocking” value in assay [5], in assay [6] and in assay [7] were 99.5%, 96.6% and 95.2%, respectively.

B7: H1M732N (antibody, V domains shown)
VH: EVQLVESGGGLVRPGGSLRLSCAASGFTFTNAWMSWVRQAPGKGLEWIGQIKSKTDGGTIDYAAPVKGRFTVSRDDSENTLFLQMNSLKTEDTAVYYCAGNWNYVDFDYWGQGTLVTVSS
VL: B6 VL with G28D, N53S, A85T, I93S, L96F, G100P, E105D
Turning to B7, the Kd in the assay with Monomeric hAng-2FD amounted to 6.13 nM; in assay [1] it was 0.131 nM; in assay [2], 0.484 nM; in assay [3], 1.7 nM; in assay [4] it was 7.33 nM. In addition, the T1/2 stood at 18.7 min with Monomeric hAng-2FD; 5.55 h in assay [1]; 35.5 min in assay [2]; 21.4 min in assay [3]; 24.1 min in assay [4]. Besides, the “Percent Blocking” value was determined as 97.7% in assay [5], 90.9% in assay [6] and 95.8% in assay [7].

What is called Kd is the concentration at which binding is half-saturated.

The values are drawn from patent US20140112930A1 (published 2014).
